Data from US20150158921A1.

Experiments:
Assay in all cases: cell-based or functional assay
[1] = biological target: rat α6/α3β2β3 nAChR (rat), P12390
[2] = biological target: rat α3β4 nAChR (rat), P04757
[3] = biological target: rat α2β4 nAChR (rat), P12389
[4] = biological target: rat α6/α3β4 nAChR (rat), P12392
[5] = biological target: human α6/α3β2β3 nAChR (human), P17787
[6] = biological target: human α7 nAChR (human), P36544
[7] = biological target: rat NMDA receptor NR1-2b/NR2D (rat), P35439
[8] = biological target: rat α7 nAChR (rat), Q05941
[9] = biological target: rat NMDA receptor NR1-2b/NR2C (rat), P35439
[10] = biological target: rat α2β2 nAChR (rat), P12389
rat α2β2 nAChR (rat), P12389, sequence (P12389 28-511, chain 1 of 2): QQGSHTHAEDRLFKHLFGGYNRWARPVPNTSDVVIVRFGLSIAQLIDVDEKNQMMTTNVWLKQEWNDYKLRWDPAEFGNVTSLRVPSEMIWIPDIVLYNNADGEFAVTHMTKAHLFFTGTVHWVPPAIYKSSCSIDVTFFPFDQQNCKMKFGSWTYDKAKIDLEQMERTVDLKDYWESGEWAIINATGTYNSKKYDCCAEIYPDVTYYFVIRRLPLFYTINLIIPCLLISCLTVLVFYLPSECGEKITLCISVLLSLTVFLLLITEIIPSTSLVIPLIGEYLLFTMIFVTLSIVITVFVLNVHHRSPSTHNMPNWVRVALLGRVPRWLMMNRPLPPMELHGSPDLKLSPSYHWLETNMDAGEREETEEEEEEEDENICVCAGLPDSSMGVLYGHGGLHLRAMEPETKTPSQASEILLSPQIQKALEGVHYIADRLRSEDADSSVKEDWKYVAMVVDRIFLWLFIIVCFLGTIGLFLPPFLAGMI
rat α2β2 nAChR (rat), P12389, sequence (P12390 25-500, chain 2 of 2, further chain): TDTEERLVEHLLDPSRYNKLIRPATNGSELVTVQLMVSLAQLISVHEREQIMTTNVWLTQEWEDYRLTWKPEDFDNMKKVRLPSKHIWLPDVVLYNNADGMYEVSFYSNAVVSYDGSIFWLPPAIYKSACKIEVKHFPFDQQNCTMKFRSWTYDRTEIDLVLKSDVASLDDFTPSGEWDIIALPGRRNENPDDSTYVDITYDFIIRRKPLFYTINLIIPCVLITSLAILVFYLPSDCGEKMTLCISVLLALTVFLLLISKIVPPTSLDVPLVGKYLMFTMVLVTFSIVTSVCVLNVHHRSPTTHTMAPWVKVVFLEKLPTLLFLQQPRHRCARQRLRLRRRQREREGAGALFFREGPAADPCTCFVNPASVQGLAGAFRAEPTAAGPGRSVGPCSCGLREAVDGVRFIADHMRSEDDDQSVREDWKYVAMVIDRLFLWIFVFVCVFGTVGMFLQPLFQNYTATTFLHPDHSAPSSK

[11] = biological target: rat α4β2 nAChR (rat), P09483
rat α4β2 nAChR (rat), P09483, sequence (P09483 31-630, chain 1 of 2): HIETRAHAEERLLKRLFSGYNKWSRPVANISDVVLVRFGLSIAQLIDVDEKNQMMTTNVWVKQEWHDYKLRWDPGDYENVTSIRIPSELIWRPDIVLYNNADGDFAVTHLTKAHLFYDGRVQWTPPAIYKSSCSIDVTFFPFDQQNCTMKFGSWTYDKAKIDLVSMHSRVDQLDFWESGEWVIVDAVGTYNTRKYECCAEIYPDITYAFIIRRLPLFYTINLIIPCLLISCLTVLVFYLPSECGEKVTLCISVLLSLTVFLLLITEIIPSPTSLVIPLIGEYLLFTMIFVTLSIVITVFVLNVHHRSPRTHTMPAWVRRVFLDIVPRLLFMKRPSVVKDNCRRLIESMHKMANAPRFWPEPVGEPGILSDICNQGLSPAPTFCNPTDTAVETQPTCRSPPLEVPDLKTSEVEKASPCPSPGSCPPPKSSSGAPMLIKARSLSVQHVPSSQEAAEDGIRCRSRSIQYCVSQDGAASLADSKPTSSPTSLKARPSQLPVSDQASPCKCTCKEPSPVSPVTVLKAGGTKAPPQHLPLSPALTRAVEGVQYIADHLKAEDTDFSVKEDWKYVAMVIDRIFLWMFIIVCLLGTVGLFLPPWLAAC
rat α4β2 nAChR (rat), P09483, sequence (P12390 25-500, chain 2 of 2, further chain): as the sequence (P12390 25-500, chain 2 of 2, further chain) above

[12] = biological target: rat NMDA receptor NR1-2b/NR2A (rat), P35439
[13] = biological target: rat NMDA receptor NR1-2b/NR2B (rat), P35439
[14] = biological target: rat α4β4 nAChR (rat), P09483
rat α4β4 nAChR (rat), P09483, sequence (P09483 31-630, chain 1 of 2): as the sequence (P09483 31-630, chain 1 of 2) above
rat α4β4 nAChR (rat), P09483, sequence (P12392 21-495, chain 2 of 2, further chain): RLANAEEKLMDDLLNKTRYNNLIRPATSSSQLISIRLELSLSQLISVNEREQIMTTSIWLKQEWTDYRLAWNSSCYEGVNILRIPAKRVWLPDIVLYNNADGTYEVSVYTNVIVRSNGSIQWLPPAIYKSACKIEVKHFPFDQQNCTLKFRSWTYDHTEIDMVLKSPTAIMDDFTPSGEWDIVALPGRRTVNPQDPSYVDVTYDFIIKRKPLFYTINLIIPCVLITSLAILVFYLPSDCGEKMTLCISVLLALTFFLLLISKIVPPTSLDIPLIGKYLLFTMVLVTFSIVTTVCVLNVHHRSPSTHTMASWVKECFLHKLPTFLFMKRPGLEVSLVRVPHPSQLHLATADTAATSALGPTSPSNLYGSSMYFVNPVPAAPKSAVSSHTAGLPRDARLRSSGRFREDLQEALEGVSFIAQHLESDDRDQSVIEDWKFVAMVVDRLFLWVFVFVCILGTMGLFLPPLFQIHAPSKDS

[15] = biological target: rat α3β2 nAChR (rat), P04757

human α7 nAChR (human), P36544, sequence (P36544 23-502): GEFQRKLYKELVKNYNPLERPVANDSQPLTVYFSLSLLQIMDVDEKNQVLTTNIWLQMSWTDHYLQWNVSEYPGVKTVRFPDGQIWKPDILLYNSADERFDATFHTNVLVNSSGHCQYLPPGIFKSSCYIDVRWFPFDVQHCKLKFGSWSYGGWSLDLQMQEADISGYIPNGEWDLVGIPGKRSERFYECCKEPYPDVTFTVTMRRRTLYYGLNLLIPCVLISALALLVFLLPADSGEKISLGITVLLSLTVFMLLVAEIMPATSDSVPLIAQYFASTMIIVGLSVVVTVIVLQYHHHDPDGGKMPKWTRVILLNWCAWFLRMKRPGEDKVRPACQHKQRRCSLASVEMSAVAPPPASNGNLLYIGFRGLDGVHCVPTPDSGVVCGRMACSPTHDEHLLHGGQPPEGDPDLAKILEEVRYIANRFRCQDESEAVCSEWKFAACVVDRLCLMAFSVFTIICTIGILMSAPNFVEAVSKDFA
rat α2β4 nAChR (rat), P12389, sequence (P12389 28-511, chain 1 of 2): as the sequence (P12389 28-511, chain 1 of 2) above
rat α2β4 nAChR (rat), P12389, sequence (P12392 21-495, chain 2 of 2, further chain): as the sequence (P12392 21-495, chain 2 of 2, further chain) above

**Q.** With TCRSSGRYCRSPYDRRRRYCRRITDACV (modifications not checked) [αO-conotoxin GeXIVA12 (GeXIVA mature peptide isomer with disulfide bonds I-II, III-IV)] as the binder, how does the Half-blocking dose IC50, ACh-gated current, oocyte voltage clamp [1] read?
**A.** 258 nM

**Q.** And the Half-blocking dose IC50, ACh-gated current, oocyte voltage clamp [2]?
**A.** 5.4 µM

**Q.** What about the Half-blocking dose IC50, ACh-gated current, oocyte voltage clamp [3] of the same binder?
**A.** 2090 nM

**Q.** What about the Half-blocking dose IC50, ACh-gated current, oocyte voltage clamp [4] of the same binder?
**A.** 806 nM

**Q.** What about the Half-blocking dose IC50, ACh-gated current, oocyte voltage clamp [5] of the same binder?
**A.** 505 nM

**Q.** And the Half-blocking dose IC50, ACh-gated current, oocyte voltage clamp [6]?
**A.** 555 nM

**Q.** What about the Half-blocking dose IC50, NMDA receptor current, oocyte voltage clamp [7] of the same binder?
**A.** 5.2 µM

**Q.** What about the Half-blocking dose IC50, ACh-gated current, oocyte voltage clamp [8] of the same binder?
**A.** 415 nM

**Q.** And the Half-blocking dose IC50, NMDA receptor current, oocyte voltage clamp [9]?
**A.** 655 nM

**Q.** And the Half-blocking dose IC50, ACh-gated current, oocyte voltage clamp [10]?
**A.** 338 nM

**Q.** What about the Half-blocking dose IC50, ACh-gated current, oocyte voltage clamp [11] of the same binder?
**A.** 979 nM

**Q.** And the Half-blocking dose IC50, NMDA receptor current, oocyte voltage clamp [12]?
**A.** 3.7 µM

**Q.** What about the Half-blocking dose IC50, NMDA receptor current, oocyte voltage clamp [13] of the same binder?
**A.** 4 µM

**Q.** And the Half-blocking dose IC50, ACh-gated current, oocyte voltage clamp [14]?
**A.** 2390 nM

**Q.** What about the Half-blocking dose IC50, ACh-gated current, oocyte voltage clamp [15] of the same binder?
**A.** 412 nM
